# B1: dsDNA1 (dsDNA)
# DNA 1: CTTATTGAATTA
# DNA 2: TAATTCAATAAG
# B2: dsDNA2 (dsDNA)
# DNA 1: GAAAATTGGGTAAG
# DNA 2: CTTACCCAATTTTC
# Molecular target: hSpt5 KOW4 (S522-G647) (Homo sapiens, UniProt O00267 522-647)
# Assay: fluorescence anisotropy; 50 nM nucleic acid; Fluorescence anisotropy: 25 mM Tris/HCl pH 7.0, 50 mM NaCl, 25 C (buffer printed for duplex annealing, named fluorescence buffer); NMR with Rpb4/7 (Fig 7): 50 mM Na phosphate pH 7.0, 50 mM NaCl, 1 mM DTT, 298 K
# Settings: protein: recombinant, tags: His6-GB1 removed by TEV
# [1] = label: 5' 6-FAM on strand 1, blunt
Binder,Kd (label: 5' 6-FAM) [µM],Kd [1] [µM]
GGCGGUAGCGUG (ssRNA) [ssRNA],39.5 ± 7.4,
CTTATTGAATTA (ssDNA) [ssDNA1],12.2 ± 0.6,
GAAAATTGGGTAAG (ssDNA) [ssDNA2],24.5 ± 3.2,
B1,,20.1 ± 0.4
B2,,41.2 ± 9
